{
  "source": "patent US20240254202A1",
  "about": "(CONSEJO NACIONAL DE INVESTIGACIONES CIENT FICAS Y T CNICAS …, published 2024)",
  "binders": {"B1": {"name": "NbCoV_10 (VHH)", "VHH": "QVQLQESGGGLVQAGGSLHLSCTASGSENMLRWYAVGWYRQAPGKQRELVATITRGGSTNVVDSVKGRFTISRDNAKNMVALQMNSLKPEDTAVYSCAAAYAPYTDYHPVEYVYWGQGTQVTVSS", "notes": "also called Nb 10; 10 Mebus"}, "B2": {"name": "NbCoV_43 (VHH)", "VHH": "QVQLQESGGGLVQPGGSLRLSCVASGSIGSINHMAWFRKPPGKERELVASITLAPDEIAYYADSVKGRFAISKGNAQPTLYLQMNSLKPEDTAVYYCHFRQIRANAHDVYWGQGTQVTVSS", "notes": "also called Nb 43"}, "B3": {"name": "NbCoV_39 (VHH)", "VHH": "QVQLQESGGGLVQAGGSLRLSCAASGRTFSSTAMAWFRQAPGQEREFVATISWSGDNTKYADSVKGRFTISRDNAKNTVYLQMNSLKPEDTAVYYCAADPGNFGVPIEYFMFDYWGQGTQVTVSS", "notes": "also called Nb 39; 39A"}, "B4": {"name": "NbCoV_104 (VHH)", "VHH": "QVQLQESGGGLVQPGGSLRLSCAASGSIFRVMGWYRQAPGKEHDLVATITRSGDTNYADSVKGRFTISRDNTKNTVYLQMNNLKPEDTDVYYCYARNFVGHNPDVWGQGTQVTVSS", "notes": "also called Nb 104"}, "B5": {"name": "NbCoV_125 (VHH)", "VHH": "QVQLQESGGGLVQPGGSLRLSCAASAHFFSGGAMGWYRQAPGKERELVATITGGGDTNYAEHVKGRCTISSDISDNTVYLQMISLKPDDTAVYYCYARDLLQHPFWGQGTQVTVSS"}, "B6": {"name": "NbCoV_45 (VHH)", "VHH": "QVQLQESGGGLVQAGGSLRLSCVASGRTLYAMGWFRQAPGKEREFVAATSWNGGNTNYGESVKGRFTISKDNAKNTVYLQMNSLKPEDTAVYNCAASSRDSRGTSTYASYDYWGQGTQVTVSS", "notes": "also called Nb 45; Nb45"}, "B7": {"name": "NbCoV_46 (VHH)", "VHH": "QVQLQESGGGLVQAGDSLRLSCAASGRTFSSLSAGWFRQAPGKEREFVAAIRWSDYNTYYVDSVKGRFTISRDNAKNTVYLQMDSLKPEDTAVYYCAATALGYRYASLESRNEYRYWGQGTQVTVSS"}, "B8": {"name": "NbCoV_71 (VHH)", "VHH": "QVQLQESGGGLVQAGGSLRLSCAASGLTFGYTATAWFRQAPGKEREFVARIFKRGGYTYYSDSVKGRFTVSRDSAKDTVYLQMNSLKSEDTAVYYCAVAREWSDLDFRDGYDYWGQGTQVTVSS"}, "B9": {"name": "NbCoV_110 (VHH)", "VHH": "QVQLQESGGGLVQAGDSLRLSCAASGRTFGSHATAWFRQAPGKEREFVARIFWRGDYTYYADSVKGRFTISRDSAKNTVYLQMNSLKSEDTAVYYCAVARSWSDLDFENGYDYWGQGTQVTVSS", "notes": "also called Nb 110"}, "B10": {"name": "NbCoV_48 (VHH)", "VHH": "QVQLQESGGGLVQPGGSLRLSCVASRSIGSINHMAWYRKAPGKERELVASITLSPSETVYYTEVVKGRFAISKGNAQNTLYLQMNSLKPEDTAVYYCHFRQIRAIADDVYWGQGTQVTVSS"}, "B11": {"name": "NbCoV_31 (VHH)", "VHH": "QVQLQESGGGLVQAGGSLRLSCAASGRTFSRSAVAWFRQAPGKEREFVAGISWSGRNVNYANSVKGRFTISRDSTKNTVYLQMNSLKPEDTAVYYCATSQFGSGTSDSEQYDYWGQGTQVTVSS"}, "B12": {"name": "NbCoV_44 (VHH)", "VHH": "QVQLQESGGGLVQAGGSLRLSCAASGRTVSYRVMGWFRQAPGKEREFVAFVDWSSGTAYYAESVQGRFIMSRDTADNTGFLQMNNLKPEDTAVYYCAADPFFRVIAYSDPKRYSYWGQGTQVTVSS"}, "B13": {"name": "NbCoV_136 (VHH)", "VHH": "QVQLQESGGGLVQTGGSLRLSCAASGRTASSYTMGWFRQAAGKERDFVAAIRESLGYTNYADSVKGRFTISRDNANNTVYLQMNSLKPEDTAVYYCAAYEGIRYSSTRADFYNYWGQGTQVTVSS"}, "B14": {"name": "NbCoV_27 (VHH)", "VHH": "QVQLQESGGGLVQPGGSLRLSCAASGSGFSLRVMGWYRQAPGKEHRLVATISRTGITNYADSVKGRFTISRDNAKDTVYLQMNNLKPEDTDVYYCYARNFVGDDFNLWGQGTQVTVSS"}, "B15": {"name": "NbCoV_145 (VHH)", "VHH": "QVQLQESGGGLVQAGGSLRLSCAASGRTFSSYAMGWFRQAPGKEREFVAVINWSGANTRYTDSVKGRFSISRDNAKNTVYLQMNSLKPEDTAVYYCAADPGNFGVPIEHFMYDYWGQGTQVTVSS", "notes": "also called Nb 145"}, "B16": {"name": "NbCoV_29 (VHH)", "VHH": "B6 VHH with V23A, T49K, N57Y, G59A, E60D, R99W, T104S, T106N, A108V, S109H"}, "B17": {"name": "NbCoV_78 (VHH)", "VHH": "QVQLQESGGGLVQAGGSLRLSCVASGRAFSSSSMGWFRQAPGKEREFVAAIRWSDDNTVYVDSVKGRFAISRDNAKNTVYLQMNSLKPEDTAVYYCAATGLGYRYAVLESRSEYRYWGQGTQVTVSS"}, "B18": {"name": "NbCoV_32 (VHH)", "VHH": "QVQLQESGGGSVQPGGSLRLSCAVSRSRFSLVTMGWYRQAPGKERELVAAIAIGGSTKYADSVKGRFTISRDNAKSTVYLQMNSLQPEDTAVYYCNEARVYDSNWYPRDYWGQGTQVTVSS"}},
  "note": "Positions count from the first letter of the chain named.",
  "data": [
    {"biological_target": "T1, Receptor Binding Domain (RBD) of the SARS-COV-2 protein S (SARS-CoV-2, UniProt P0DTC2 319-541)", "experiment": "as told in Example 8", "values": [
      {"binder": "B1", "binding result": "binds"}
    ]},
    {"biological_target": "Spike protein of wild-type virus isolate USA-WA1/2020 (SARS-CoV-2, UniProt P0DTC2 14-1273)", "experiment": "cell-based or functional assay", "units": {"wildtype VN, plaque reduction assay, neutralizing activity": "nM"}, "values": [
      {"binder": "B2", "wildtype VN, plaque reduction assay, neutralizing activity": 3.12},
      {"binder": "B3", "wildtype VN, plaque reduction assay, neutralizing activity": 0.244},
      {"binder": "B4", "wildtype VN, plaque reduction assay, neutralizing activity": 0.977}
    ]},
    {"biological_target": "T1, Receptor Binding Domain (RBD) of the …", "experiment": "phage ELISA, RBD coated", "values": [
      {"binder": "B5", "binding result": "binds"},
      {"binder": "B6", "binding result": "no binding"},
      {"binder": "B7", "binding result": "no binding"}
    ]},
    {"biological_target": "T1, Receptor Binding Domain (RBD) of the …", "experiment": "ELISA, purified nanobody, RBD coated", "units": {"EC50": "nM"}, "values": [
      {"binder": "B8", "EC50": 1.63},
      {"binder": "B9", "EC50": 32.4},
      {"binder": "B10", "EC50": 1.78},
      {"binder": "B11", "EC50": 137},
      {"binder": "B2", "EC50": 0.18},
      {"binder": "B12", "EC50": 16.8},
      {"binder": "B13", "EC50": 13.4},
      {"binder": "B14", "EC50": 0.7},
      {"binder": "B3", "EC50": 0.29},
      {"binder": "B15", "EC50": 4.63},
      {"binder": "B16", "EC50": 55.9},
      {"binder": "B17", "EC50": 16.6},
      {"binder": "B4", "EC50": 5.45},
      {"binder": "B18", "EC50": 83.6}
    ]},
    {"biological_target": "Peptide 59 of the Spike peptide array (B.E.I resources NR-52402)", "experiment": "peptide array ELISA, 100 ng peptide coated, 100 ng nanobody per well", "units": {"OD 405 nm": "OD 405 nm"}, "values": [
      {"binder": "B3", "OD 405 nm": 0.423}
    ]},
    {"biological_target": "Peptide 84 of the Spike peptide array (B.E.I resources NR-52402)", "experiment": "peptide array ELISA, 100 ng peptide coated, 100 ng nanobody per well", "units": {"OD 405 nm": "OD 405 nm"}, "values": [
      {"binder": "B5", "OD 405 nm": 0.214},
      {"binder": "B2", "OD 405 nm": 0.555},
      {"binder": "B1", "OD 405 nm": 0.226}
    ]},
    {"biological_target": "Peptide 125 of the Spike peptide array (B.E.I resources NR-52402)", "experiment": "peptide array ELISA, 100 ng peptide coated, 100 ng nanobody per well", "units": {"OD 405 nm": "OD 405 nm"}, "values": [
      {"binder": "B4", "OD 405 nm": 0.731}
    ]},
    {"biological_target": "Peptide 175 of the Spike peptide array (B.E.I resources NR-52402)", "experiment": "peptide array ELISA, 100 ng peptide coated, 100 ng nanobody per well", "units": {"OD 405 nm": "OD 405 nm"}, "values": [
      {"binder": "B4", "OD 405 nm": 0.503}
    ]},
    {"biological_target": "Peptide 16 of the Spike peptide array (B.E.I resources NR-52402)", "experiment": "peptide array ELISA, 100 ng peptide coated, 100 ng nanobody per well", "units": {"OD 405 nm": "OD 405 nm"}, "values": [
      {"binder": "B9", "OD 405 nm": 0.64}
    ]}
  ]
}
